According to the supplement of paper PMC9233669:
Variants at the floor of the assay were thinned out.

What was measured:
biotinyl-Val-oxazolone = assay: self-aminoacylation, catalytic enhancement (BVO) (fold over background); higher = more active; k-Seq, kA / k0A0; sequences stand for … in GGGAAUGGAUCCACAUCUACGAAUUC…UUCACUGCAGACUUGACGAAGCUG
Method in brief: (§1)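 Each biotinyl-aminoacyl-oxazolone, at 2–1250 μM, was incubated with mutagenized RNA pools (0.43 μM) carrying a 21-nt variable region. The 50 μL reactions contained HEPES/NaCl/KCl/MgCl2/CaCl2 buffer with 5% acetonitrile at pH 6.9–7.0 and ran for 90 minutes at room temperature. After streptavidin capture, RNA was measured by qPCR in triplicate and by Illumina sequencing, and catalytic enhancement was calculated as median kA over the uncatalyzed rate from a pseudo-first-order fit of per-sequence fraction reacted.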

biotinyl-Phe-oxazolone = assay: self-aminoacylation, catalytic enhancement (BFO) (fold over background); higher = more active; k-Seq, kA / k0A0; sequences stand for … in GGGAAUGGAUCCACAUCUACGAAUUC…UUCACUGCAGACUUGACGAAGCUG
Method in brief: as §1

biotinyl-Ile-oxazolone = assay: self-aminoacylation, catalytic enhancement (BIO) (fold over background); higher = more active; k-Seq, kA / k0A0; sequences stand for … in GGGAAUGGAUCCACAUCUACGAAUUC…UUCACUGCAGACUUGACGAAGCUG
Method in brief: as §1

biotinyl-Leu-oxazolone = assay: self-aminoacylation, catalytic enhancement (BLO) (fold over background); higher = more active; k-Seq, kA / k0A0; sequences stand for … in GGGAAUGGAUCCACAUCUACGAAUUC…UUCACUGCAGACUUGACGAAGCUG
Method in brief: as §1

biotinyl-Trp-oxazolone = assay: self-aminoacylation, catalytic enhancement (BWO) (fold over background); higher = more active; k-Seq, kA / k0A0; sequences stand for … in GGGAAUGGAUCCACAUCUACGAAUUC…UUCACUGCAGACUUGACGAAGCUG
Method in brief: as §1

biotinyl-Met-oxazolone = assay: self-aminoacylation, catalytic enhancement (BMO) (fold over background); higher = more active; k-Seq, kA / k0A0; sequences stand for … in GGGAAUGGAUCCACAUCUACGAAUUC…UUCACUGCAGACUUGACGAAGCUG
Method in brief: as §1

Sequence	self-aminoacylation (biotinyl-Val-oxazolone)	self-aminoacylation (biotinyl-Phe-oxazolone)	self-aminoacylation (biotinyl-Ile-oxazolone)	self-aminoacylation (biotinyl-Leu-oxazolone)	self-aminoacylation (biotinyl-Trp-oxazolone)	self-aminoacylation (biotinyl-Met-oxazolone)
AUUCACCUAGGUCAUCAGGUG [Fam2.2 aminoacylation ribozyme variant]	1.3	1.31	1.19	1.56	1.39	1.39
AUUCACCUAGGUCAUCCAGUG [Fam2.2 aminoacylation ribozyme variant]	4.21	52	5.19	9.68	6.96	7.78
AUUCACCUAGGUCAUCGCGGG [Fam2.2 aminoacylation ribozyme variant]	2.47	10.7	2.97	4.05	2.25	3.25
AUUCACCUAGGUCAUCGGAGG [Fam2.2 aminoacylation ribozyme variant]	1.03	0.759	0.829	0.991	0.621	0.898
AUUCACCUAGGUCAUCGGAUA [Fam2.2 aminoacylation ribozyme variant]	1.2	0.865	0.894	0.877	0.615	0.754
AUUCACCUAGGUCAUCGGCUU [Fam2.2 aminoacylation ribozyme variant]	2.02	6.3	2.1	2.3	3.27	2.26
AUUCACCUAGGUCAUCGGGAU [Fam2.2 aminoacylation ribozyme variant]	3.4	18.7	3.59	9.22	5.12	6.11
AUUCACCUAGGUCAUCGGGCA [Fam2.2 aminoacylation ribozyme variant]	3.24	3.27	3.5	5.57	2.81	3.67
AUUCACCUAGGUCAUCGGGCG [Fam2.2 aminoacylation ribozyme variant]	4.82	13.8	4.76	10.3	5.66	7.58
AUUCACCUAGGUCAUCGGGCU [Fam2.2 aminoacylation ribozyme variant]	4.55	37.6	5.03	12.4	6.09	8.6
AUUCACCUAGGUCAUCGGGGG [Fam2.2 aminoacylation ribozyme variant]	4.28	32.6	4.62	9.91	5.49	6.96
AUUCACCUAGGUCAUCGGUGG [Fam2.2 aminoacylation ribozyme variant]	1.52	4.26	1.5	1.85	1.81	1.97
AUUCACCUAGGUCAUCGGUUA [Fam2.2 aminoacylation ribozyme variant]	1.17	1.09	1.11	1.27	1.35	1.28
AUUCACCUAGGUCAUCGUGUU [Fam2.2 aminoacylation ribozyme variant]	0.73	0.729	0.899	0.905	1.62	0.887
AUUCACCUAGGUCAUCUUGUG [Fam2.2 aminoacylation ribozyme variant]	1.04	1.37	0.835	1.18	0.594	1.13
AUUCACCUAGGUCAUGAGGUG [Fam2.2 aminoacylation ribozyme variant]	1.81	3.32	1.94	3.15	1.75	2.41
AUUCACCUAGGUCAUGGCGUG [Fam2.2 aminoacylation ribozyme variant]	5.9	59.8	5.83	13.2	8.17	9.82
AUUCACCUAGGUCAUGGGGCG [Fam2.2 aminoacylation ribozyme variant]	2.27	1.37	2.18	3.14	2.15	2.3
AUUCACCUAGGUCAUGGGGUC [Fam2.2 aminoacylation ribozyme variant]	1.4	1.36	1.32	1.2	1	1.39
AUUCACCUAGGUCAUGGGGUG [Fam2.2 aminoacylation ribozyme variant]	3.56	39.9	3.7	7.33	5.27	5.76
AUUCACCUAGGUCAUGGGGUU [Fam2.2 aminoacylation ribozyme variant]	1.58	0.983	1.5	1.52	1.51	1.68
AUUCACCUAGGUCAUUGAGUG [Fam2.2 aminoacylation ribozyme variant]	2.3	12.3	2.6	4.17	3.89	3.53

Sequence	self-aminoacylation (biotinyl-Val-oxazolone)	self-aminoacylation (biotinyl-Phe-oxazolone)	self-aminoacylation (biotinyl-Ile-oxazolone)	self-aminoacylation (biotinyl-Leu-oxazolone)	self-aminoacylation (biotinyl-Trp-oxazolone)	self-aminoacylation (biotinyl-Met-oxazolone)
AUUCACCUAGGUCCUAGGGUG [Fam2.2 aminoacylation ribozyme variant]	1.75	4.72	2.06	4.26	3.15	2.55
AUUCACCUAGGUCCUCGAGUG [Fam2.2 aminoacylation ribozyme variant]	1.38	3.5	1.26	2.12	1.18	1.36
AUUCACCUAGGUCCUCGGGCG [Fam2.2 aminoacylation ribozyme variant]	2.7	35.3	3.37	4.27	3.17	4.65
AUUCACCUAGGUCGUCGAGUG [Fam2.2 aminoacylation ribozyme variant]	0.878	0.746	0.661	0.851	0.529	0.743
AUUCACCUAGGUCGUCGCGUG [Fam2.2 aminoacylation ribozyme variant]	3.84	39	3.52	7.92	5.27	5.72
AUUCACCUAGGUCUUAGGGUG [Fam2.2 aminoacylation ribozyme variant]	2.85	32.2	3.08	7.06	4.24	5.1
AUUCACCUAGGUCUUCGGGUC [Fam2.2 aminoacylation ribozyme variant]	1.68	3.66	1.65	2.37	1.79	1.33
AUUCACCUAGGUCUUCGGGUU [Fam2.2 aminoacylation ribozyme variant]	2.98	13.8	2.82	3.66	2.94	3.09
AUUCACCUAGGUCUUUGGGUG [Fam2.2 aminoacylation ribozyme variant]	4.09	56.1	4.28	9.98	6.83	6.91
AUUCACCUAGGUGAUCGGGUA [Fam2.2 aminoacylation ribozyme variant]	2.48	9.83	2.67	3.14	3.59	3.18
AUUCACCUAGGUGAUCGGGUG [Fam2.2 aminoacylation ribozyme variant]	2.62	16.6	2.52	3.27	3.34	2.81
AUUCACCUAGGUUAACGGGUG [Fam2.2 aminoacylation ribozyme variant]	2.1	24.8	2	3.22	2.83	2.55
AUUCACCUAGGUUAUCGGAUG [Fam2.2 aminoacylation ribozyme variant]	0.986	0.355	0.661	0.673	0.723	0.712
AUUCACCUAGUACAUCGGGUG [Fam2.2 aminoacylation ribozyme variant]	1.65	10.4	1.55	2.71	2.21	2.21
AUUCACCUAGUGCAUCGGGUG [Fam2.2 aminoacylation ribozyme variant]	1.63	5.22	1.35	2.12	1.17	1.62
AUUCACCUAGUUCACCGGGUG [Fam2.2 aminoacylation ribozyme variant]	2.41	15.6	2.37	3.58	3.92	3.25
AUUCACCUAGUUCAUCGCGUG [Fam2.2 aminoacylation ribozyme variant]	2.99	35.7	3.27	6.91	5.66	4.88
AUUCACCUAGUUCAUCGGGUC [Fam2.2 aminoacylation ribozyme variant]	1.17	0.49	0.996	0.903	0.582	0.906
AUUCACCUAGUUCAUUGGGUG [Fam2.2 aminoacylation ribozyme variant]	1.62	18.9	1.85	3.47	2.83	2.54
AUUCACCUAGUUCUUCGGGUG [Fam2.2 aminoacylation ribozyme variant]	2.43	18.1	2.2	3.31	2.9	2.71
AUUCACCUAGUUGAUCGGGUG [Fam2.2 aminoacylation ribozyme variant]	2.79	23.9	2.5	4.3	4.26	3.66
